The text below walks through data of paper PMC10398670 (EMBO Reports, 2023).

The target in one assay is T1, MIRO‐1::His (C. elegans, UniProt Q94263 1-601).
T1 sequence (looked up): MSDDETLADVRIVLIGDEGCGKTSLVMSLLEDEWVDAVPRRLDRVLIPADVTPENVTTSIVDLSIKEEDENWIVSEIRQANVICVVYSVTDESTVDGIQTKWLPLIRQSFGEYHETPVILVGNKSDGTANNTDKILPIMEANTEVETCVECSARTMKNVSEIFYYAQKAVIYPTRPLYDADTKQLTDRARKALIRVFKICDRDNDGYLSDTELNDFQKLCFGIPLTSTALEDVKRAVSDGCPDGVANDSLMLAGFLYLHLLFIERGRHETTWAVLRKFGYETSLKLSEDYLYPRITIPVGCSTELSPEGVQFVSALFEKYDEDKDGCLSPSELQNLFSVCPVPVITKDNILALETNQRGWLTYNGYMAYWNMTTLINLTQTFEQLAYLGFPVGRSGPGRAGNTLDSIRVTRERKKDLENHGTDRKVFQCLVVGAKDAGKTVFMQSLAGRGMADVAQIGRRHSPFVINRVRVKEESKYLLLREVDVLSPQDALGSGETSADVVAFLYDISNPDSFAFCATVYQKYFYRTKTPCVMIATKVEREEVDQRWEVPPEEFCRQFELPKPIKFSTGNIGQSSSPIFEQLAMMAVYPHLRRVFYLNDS
Put plainly: cross-linking.

The target in the next assay is T2, GST::MIRO‐1 (C. elegans, UniProt Q94263 1-601).
T2 sequence (looked up): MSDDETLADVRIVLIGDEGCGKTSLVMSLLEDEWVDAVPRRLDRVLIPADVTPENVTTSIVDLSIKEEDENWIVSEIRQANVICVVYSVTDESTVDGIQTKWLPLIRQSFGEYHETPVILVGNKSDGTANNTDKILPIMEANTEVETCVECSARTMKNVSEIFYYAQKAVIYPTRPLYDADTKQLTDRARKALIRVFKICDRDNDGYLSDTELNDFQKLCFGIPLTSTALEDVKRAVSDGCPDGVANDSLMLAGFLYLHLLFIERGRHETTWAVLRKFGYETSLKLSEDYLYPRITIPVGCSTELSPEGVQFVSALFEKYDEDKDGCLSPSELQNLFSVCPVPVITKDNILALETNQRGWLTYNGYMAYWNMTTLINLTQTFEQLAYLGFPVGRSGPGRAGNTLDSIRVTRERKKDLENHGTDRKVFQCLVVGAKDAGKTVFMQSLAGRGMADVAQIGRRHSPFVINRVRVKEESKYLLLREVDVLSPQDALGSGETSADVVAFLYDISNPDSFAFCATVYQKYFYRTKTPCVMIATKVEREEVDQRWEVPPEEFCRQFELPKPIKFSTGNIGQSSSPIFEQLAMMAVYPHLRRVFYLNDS
Kind of assay: pull-down.

B1: VDAC‐1::His (natural protein, C. elegans, UniProt Q21752 1-283, looked up)
chain: MAPPTFADLGKSAKDLFNKGYNFGFLKIDSTTRAGDNKEVEFKSAASHNIGSGKLGGNLDVKYKIPQYGITLTEKWNTENQLGTVIEVNEQFGRGLKVTLDSLYAPHAGKRSGKVKLDWALPTARVTADVGVTSAPVINAAGVFSRDGWLIGAAATFDSSSNKLAATSLAFGHSTPQYTLHSFVINSTDFGASLYHKVASNVEVGTQLGWKVGGNGADYALATKYAPSRDLTVRAKVNSSSQVAVAATHSLSPALKLTLSTQFNLAANDAHKFGLGLEFDPSN
For the molecule B1, the binding result in the assay with MIRO‐1::His and with GST::MIRO‐1 was “binds” in each case.
